Test results as given in patent US20230357415A1 (AJOU UNIVERSITY INDUSTRY ACADEMIC COOPERATION FOUNDATION, published 2023).

Target: T1, sIL-5Rα antigen protein (Sinobio 10392-H08H) (Homo sapiens (Human), UniProt Q01344 21-342)
T1 construct: Bought protein immobilised in the indirect ELISAs; also called soluble IL-5Rα; CD125
T1 sequence: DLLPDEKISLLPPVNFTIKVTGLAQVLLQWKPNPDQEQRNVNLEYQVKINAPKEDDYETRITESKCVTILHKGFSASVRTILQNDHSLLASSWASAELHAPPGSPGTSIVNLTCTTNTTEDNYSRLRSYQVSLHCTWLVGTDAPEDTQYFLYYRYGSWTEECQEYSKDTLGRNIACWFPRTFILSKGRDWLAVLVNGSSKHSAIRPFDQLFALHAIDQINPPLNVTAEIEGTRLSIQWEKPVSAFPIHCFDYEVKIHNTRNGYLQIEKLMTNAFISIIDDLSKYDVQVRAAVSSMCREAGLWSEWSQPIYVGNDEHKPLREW
Test: indirect ELISA; plate-coated sIL-5Rα, antibody 100, 10, 1 nM, anti-human Fc-HRP, absorbance at 450 nm
Experimental: After discarding the solution and washing the same three times with 0.1% PBST, an anti-human Fc-HRP antibody (1:8000) as a secondary antibody was added in an amount of 25 μl/well and reacted at room temperature for 1 hour.

B1: 4R34.1.19-SL-5R65 (bispecific antibody, human IgG1, kappa)
light: QSVLTQPPSASGTPGQRVTISCSGSPLFPDSGSFNWYQQLPGTAPKLLIYADSHRPSGVPDRFSGSKSGTSASLAISGLRSEDEADYYCGTWDYSLSGYVLGGGTKLTVLGTVAAPDIQMTQSPSTLSASVGDRVTITCKASQNVGTAVAWYQQKPGKAPKLLIYWASTRHTGVPDRFSGSGSGTDFTLTISSLQPDDFATYYCQQFGRYPYTFGSGTKVEVKRTVAAPSVFIFPPSDEQLKSGTASVVCLLNNFYPREAKVQWKVDNALQSGNSQESVTEQDSKDSTYSLSSTLTLSKADYEKHKVYACEVTHQGLSSPVTKSFNRGEC
heavy: not shown
notes: The 4R34.1.19 variable regions are outermost and the 5R65 variable regions come second; also called 4R-SL-5R; DVD-IgG
Q: Does B1 bind?
A: Result: binds
